The target in this series is RsaL (Pseudomonas aeruginosa PA1201, UniProt Q9X7H4 1-80). Kind of series: EMSA; EMSA: 10 mM Tris-HCl pH 8.0, 1 mM EDTA, 5 mM MgCl2, 50 mM KCl, 2.5% glycerol, 30 ug/ml poly(dI-dC), 0.05% NP-40, room temperature 20 min; footprint: 100 ng probe in 40 ul, 30 min room temperature, DNase I 1 min 25 C. The settings on record: protein: recombinant, tags: His (pET28a), chain copies: 2.

B1: PRO-II (dsDNA)
DNA 1: AAATGAGATAGATTTCGGTGAACCCGGACCCTTGCTAGGCTCGAAGAAACGTCCGAAAAGATCAGAGCAATGGCTTCACACGAG
DNA 2: CTCGTGTGAAGCCATTGCTCTGATCTTTTCGGACGTTTCTTCGAGCCTAGCAAGGGTCCGGGTTCACCGAAATCTATCTCATTT
As to B1, under “label: Cy5”, the binding result is “binds”.

B2: PRO-II-p (dsDNA)
DNA 1: AAATGAGATAGGCCCCGGTGAACCCGGACCCTTGCTAGGCTCGAAGAAACGTCCGAAAAGATCAGAGCAATGGCTTCACACGAG
DNA 2: CTCGTGTGAAGCCATTGCTCTGATCTTTTCGGACGTTTCTTCGAGCCTAGCAAGGGTCCGGGTTCACCGGGGCCTATCTCATTT
B2: the binding result is reported as “no binding”.
